Biological target: T1, Tfb2 (yeast (endogenous, purified from yeast), UniProt Q02939 1-513)
T1 sequence: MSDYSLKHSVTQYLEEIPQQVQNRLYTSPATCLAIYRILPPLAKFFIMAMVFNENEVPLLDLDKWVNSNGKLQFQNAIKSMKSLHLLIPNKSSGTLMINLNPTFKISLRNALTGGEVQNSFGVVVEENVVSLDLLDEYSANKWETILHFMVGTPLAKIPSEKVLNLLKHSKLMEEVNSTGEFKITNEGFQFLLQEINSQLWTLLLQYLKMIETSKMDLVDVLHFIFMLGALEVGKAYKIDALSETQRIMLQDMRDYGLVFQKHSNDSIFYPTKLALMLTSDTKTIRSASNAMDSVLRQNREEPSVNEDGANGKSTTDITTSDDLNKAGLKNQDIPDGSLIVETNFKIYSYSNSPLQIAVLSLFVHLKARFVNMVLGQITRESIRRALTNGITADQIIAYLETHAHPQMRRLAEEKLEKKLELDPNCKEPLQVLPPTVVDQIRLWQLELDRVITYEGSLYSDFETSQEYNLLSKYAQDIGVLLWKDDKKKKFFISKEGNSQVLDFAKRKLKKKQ
Experiment: cryo-EM structure

B1: Tfb5 (natural protein)
chain: MARARKGALVQCDPSIKALILQIDAKMSDIVLEELDDTHLLVNPSKVEFVKHELNRLLSKNIYNPMDEEENQ
B1: binds.

Source: article doi:10.1101/2021.01.14.426755 (bioRxiv, 2021)
